Source: US20120190623

Tests used:
[1] = molecular target: FVIII mutant L/L 2251/2252 L/S (L2252S) (UniProt P00451)
[2] = molecular target: FVIII mutant M/F 2199/2200 W/W (UniProt P00451)
[3] = molecular target: FVIII mutant M/F/L 2199/2200/2252 W/W/S (UniProt P00451)
Sequence of FVIII mutant M/F/L 2199/2200/2252 W/W/S (P00451 other isoform, or with tags, fused parts or gaps mutant): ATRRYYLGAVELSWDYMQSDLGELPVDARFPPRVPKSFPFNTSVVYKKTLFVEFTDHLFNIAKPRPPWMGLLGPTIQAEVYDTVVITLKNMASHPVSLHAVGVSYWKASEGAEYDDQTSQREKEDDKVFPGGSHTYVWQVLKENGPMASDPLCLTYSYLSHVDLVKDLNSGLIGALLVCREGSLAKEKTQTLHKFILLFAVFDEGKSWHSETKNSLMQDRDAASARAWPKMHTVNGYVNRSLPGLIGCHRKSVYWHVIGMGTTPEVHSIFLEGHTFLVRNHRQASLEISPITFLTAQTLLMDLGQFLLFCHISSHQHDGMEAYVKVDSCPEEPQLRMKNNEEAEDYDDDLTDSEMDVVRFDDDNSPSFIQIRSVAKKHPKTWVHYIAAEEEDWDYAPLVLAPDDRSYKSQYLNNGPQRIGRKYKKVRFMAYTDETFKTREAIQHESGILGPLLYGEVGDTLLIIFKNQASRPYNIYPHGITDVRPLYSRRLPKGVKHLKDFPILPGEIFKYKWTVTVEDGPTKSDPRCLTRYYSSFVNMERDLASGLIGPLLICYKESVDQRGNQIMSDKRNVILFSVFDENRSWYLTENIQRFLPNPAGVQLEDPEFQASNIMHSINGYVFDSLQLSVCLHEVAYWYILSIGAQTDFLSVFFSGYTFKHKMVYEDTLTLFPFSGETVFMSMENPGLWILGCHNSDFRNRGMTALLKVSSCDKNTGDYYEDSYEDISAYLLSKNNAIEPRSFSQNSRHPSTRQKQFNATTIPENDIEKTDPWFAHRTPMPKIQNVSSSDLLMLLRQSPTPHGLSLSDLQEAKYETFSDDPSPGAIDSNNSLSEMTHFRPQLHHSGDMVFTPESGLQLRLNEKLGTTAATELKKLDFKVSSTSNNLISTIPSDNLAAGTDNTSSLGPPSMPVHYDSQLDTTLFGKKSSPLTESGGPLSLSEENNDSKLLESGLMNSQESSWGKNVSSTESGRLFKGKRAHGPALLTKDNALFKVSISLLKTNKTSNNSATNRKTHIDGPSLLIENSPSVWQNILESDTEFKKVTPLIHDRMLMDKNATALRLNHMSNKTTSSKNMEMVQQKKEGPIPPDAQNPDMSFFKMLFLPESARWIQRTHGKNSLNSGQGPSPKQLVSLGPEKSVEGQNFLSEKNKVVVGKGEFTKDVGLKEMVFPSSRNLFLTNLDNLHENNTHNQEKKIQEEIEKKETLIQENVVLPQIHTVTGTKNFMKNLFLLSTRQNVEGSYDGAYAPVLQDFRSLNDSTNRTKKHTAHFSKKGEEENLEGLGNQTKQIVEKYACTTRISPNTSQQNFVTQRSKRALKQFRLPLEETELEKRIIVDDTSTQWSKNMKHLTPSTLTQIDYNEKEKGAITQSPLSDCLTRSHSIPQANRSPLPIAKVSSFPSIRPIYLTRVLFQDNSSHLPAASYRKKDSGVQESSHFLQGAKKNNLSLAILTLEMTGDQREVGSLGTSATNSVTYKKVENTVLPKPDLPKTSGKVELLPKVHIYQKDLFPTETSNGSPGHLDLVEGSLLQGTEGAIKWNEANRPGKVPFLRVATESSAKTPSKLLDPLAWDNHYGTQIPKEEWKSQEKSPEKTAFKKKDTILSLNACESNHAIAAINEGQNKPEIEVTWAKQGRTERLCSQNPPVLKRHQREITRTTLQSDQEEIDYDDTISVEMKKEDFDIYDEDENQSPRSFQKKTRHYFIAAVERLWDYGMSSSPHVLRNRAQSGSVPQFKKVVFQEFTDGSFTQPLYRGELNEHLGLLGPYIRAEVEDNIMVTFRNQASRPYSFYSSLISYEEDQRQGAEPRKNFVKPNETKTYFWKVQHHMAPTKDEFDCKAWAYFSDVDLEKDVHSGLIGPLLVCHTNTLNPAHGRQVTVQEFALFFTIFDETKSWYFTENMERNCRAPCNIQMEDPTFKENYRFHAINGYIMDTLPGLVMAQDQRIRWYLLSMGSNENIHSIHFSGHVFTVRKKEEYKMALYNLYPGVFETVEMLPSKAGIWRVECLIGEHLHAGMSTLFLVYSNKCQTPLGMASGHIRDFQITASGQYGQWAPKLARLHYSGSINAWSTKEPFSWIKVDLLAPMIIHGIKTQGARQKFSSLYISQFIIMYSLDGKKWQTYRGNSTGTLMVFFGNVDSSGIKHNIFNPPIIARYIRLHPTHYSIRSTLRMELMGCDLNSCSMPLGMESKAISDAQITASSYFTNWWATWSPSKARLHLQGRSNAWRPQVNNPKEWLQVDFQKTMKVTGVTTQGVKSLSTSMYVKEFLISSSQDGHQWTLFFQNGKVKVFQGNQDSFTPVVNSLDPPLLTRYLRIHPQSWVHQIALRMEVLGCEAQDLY

Sequence of FVIII mutant L/L 2251/2252 L/S (L2252S) (P00451 20-2351 L2271S): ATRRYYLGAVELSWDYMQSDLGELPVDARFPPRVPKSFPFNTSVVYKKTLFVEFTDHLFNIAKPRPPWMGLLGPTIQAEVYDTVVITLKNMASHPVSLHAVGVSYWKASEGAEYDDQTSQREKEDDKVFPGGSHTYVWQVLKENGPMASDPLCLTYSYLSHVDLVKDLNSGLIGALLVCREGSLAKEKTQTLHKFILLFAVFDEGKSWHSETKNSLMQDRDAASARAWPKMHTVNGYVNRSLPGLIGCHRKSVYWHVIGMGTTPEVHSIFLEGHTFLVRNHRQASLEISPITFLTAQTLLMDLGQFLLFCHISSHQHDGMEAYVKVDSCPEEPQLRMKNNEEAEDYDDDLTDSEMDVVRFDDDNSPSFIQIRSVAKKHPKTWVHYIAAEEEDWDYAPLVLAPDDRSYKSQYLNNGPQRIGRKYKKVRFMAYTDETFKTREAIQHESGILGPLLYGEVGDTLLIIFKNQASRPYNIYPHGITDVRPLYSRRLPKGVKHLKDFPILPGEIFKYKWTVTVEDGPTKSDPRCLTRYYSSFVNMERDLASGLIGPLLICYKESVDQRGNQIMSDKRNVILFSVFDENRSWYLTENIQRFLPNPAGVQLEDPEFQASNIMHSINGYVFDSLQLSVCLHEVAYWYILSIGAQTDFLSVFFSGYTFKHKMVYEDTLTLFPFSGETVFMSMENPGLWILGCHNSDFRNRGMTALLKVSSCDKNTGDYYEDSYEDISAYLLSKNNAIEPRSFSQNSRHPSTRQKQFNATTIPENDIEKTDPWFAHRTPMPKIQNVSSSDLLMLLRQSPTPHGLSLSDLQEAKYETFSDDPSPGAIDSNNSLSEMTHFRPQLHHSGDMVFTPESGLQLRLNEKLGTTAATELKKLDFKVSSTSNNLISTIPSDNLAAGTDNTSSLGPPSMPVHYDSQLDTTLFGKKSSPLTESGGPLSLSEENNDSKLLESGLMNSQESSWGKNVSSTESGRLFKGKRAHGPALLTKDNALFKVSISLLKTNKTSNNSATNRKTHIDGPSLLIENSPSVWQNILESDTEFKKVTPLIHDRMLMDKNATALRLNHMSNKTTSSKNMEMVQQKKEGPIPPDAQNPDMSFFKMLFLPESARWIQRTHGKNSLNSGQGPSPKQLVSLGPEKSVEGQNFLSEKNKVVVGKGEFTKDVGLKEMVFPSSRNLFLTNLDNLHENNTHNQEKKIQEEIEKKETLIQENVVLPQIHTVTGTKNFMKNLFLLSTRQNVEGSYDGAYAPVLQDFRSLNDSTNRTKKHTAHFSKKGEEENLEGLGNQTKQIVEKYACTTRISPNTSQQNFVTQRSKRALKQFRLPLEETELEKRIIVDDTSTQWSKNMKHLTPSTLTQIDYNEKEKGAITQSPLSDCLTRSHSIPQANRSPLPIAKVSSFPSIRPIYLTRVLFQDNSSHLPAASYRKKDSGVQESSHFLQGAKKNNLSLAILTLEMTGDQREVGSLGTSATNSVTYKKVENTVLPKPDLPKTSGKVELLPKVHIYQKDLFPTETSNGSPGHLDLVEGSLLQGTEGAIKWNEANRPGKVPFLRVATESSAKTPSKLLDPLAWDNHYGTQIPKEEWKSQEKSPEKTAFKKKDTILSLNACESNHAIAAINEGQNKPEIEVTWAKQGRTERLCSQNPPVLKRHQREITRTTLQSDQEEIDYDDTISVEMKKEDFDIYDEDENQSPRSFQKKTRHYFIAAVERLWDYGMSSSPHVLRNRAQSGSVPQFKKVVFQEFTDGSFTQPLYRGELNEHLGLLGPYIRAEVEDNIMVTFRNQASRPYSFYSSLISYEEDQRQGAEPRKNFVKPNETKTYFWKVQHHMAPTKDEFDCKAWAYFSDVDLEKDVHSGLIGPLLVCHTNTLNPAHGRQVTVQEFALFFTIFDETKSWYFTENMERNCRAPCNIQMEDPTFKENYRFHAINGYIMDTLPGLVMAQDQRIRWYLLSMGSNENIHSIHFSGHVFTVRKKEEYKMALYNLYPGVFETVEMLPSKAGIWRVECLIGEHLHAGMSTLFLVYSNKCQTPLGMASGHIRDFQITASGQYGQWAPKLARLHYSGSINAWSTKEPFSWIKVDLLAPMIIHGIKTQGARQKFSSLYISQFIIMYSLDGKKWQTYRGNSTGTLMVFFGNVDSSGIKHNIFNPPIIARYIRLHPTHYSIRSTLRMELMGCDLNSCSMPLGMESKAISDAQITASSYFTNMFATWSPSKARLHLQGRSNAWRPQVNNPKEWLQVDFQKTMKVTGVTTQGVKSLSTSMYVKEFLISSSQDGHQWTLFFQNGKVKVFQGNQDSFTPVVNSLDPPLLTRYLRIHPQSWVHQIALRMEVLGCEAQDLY
Sequence of FVIII mutant M/F 2199/2200 W/W (P00451 other isoform, or with tags, fused parts or gaps mutant): as the sequence (P00451 20-2351 L2271S) above, with M2199W, F2200W, S2252L counted along it

factor IXa
apparent affinity for factor IXa, Xase assay with 15% PS vesicles [1]: the apparent affinity for factor IXa was reduced 5-fold
apparent affinity of factor IXa, Xase assay with saturating PL, 1000 µM [1]: the apparent affinity of factor IXa for the mutants was decreased approximately 4-fold for the three mutants
apparent affinity for factor IXa, Xase assay with 15% PS vesicles [2]: the apparent affinity for factor IXa was reduced 5-fold
apparent affinity of factor IXa, Xase assay with saturating PL, 1000 µM [2]: the apparent affinity of factor IXa for the mutants was decreased approximately 4-fold for the three mutants
apparent affinity for factor IXa, Xase assay with 15% PS vesicles [3]: the apparent affinity for factor IXa was reduced 5-fold
apparent affinity of factor IXa, Xase assay with saturating PL, 1000 µM [3]: the apparent affinity of factor IXa for the mutants was decreased approximately 4-fold for the three mutants
